Measured values from PMC9953321.

Molecular target: eRF1 (not stated (S. cerevisiae or human protein prepared)) (UniProt P12385)
UniProt P12385, sequence (P12385 whole entry): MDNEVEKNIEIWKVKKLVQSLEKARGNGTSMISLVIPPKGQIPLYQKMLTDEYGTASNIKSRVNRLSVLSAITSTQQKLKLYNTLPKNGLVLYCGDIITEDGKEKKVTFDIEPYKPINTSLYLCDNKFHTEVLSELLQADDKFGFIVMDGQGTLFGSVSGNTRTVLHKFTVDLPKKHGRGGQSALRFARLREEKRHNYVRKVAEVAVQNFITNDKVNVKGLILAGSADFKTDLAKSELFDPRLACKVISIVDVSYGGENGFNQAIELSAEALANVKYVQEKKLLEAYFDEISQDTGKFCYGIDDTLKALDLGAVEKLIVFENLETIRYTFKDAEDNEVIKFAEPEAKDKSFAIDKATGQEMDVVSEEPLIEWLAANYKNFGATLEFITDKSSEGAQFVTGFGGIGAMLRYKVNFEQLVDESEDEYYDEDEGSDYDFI

eRF3, sequence (P05453 whole entry): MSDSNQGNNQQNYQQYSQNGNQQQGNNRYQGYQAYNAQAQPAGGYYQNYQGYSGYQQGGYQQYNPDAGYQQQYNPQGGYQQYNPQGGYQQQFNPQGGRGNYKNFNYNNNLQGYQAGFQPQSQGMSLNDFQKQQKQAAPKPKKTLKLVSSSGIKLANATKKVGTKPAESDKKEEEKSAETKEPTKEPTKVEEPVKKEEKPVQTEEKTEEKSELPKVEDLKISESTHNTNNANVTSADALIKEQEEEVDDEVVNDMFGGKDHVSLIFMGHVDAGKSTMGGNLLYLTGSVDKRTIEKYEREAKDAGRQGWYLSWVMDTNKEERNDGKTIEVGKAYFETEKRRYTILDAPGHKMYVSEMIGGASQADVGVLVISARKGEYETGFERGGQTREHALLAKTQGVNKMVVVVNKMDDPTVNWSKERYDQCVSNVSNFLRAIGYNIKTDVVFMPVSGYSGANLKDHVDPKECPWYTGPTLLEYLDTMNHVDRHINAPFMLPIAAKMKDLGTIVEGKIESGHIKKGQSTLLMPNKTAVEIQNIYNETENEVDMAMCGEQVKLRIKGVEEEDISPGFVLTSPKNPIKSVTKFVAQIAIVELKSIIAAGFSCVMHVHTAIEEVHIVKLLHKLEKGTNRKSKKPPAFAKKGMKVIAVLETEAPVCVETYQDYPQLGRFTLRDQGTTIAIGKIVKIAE

eRF3 (from UniProt P05453 1-685) (natural protein)
formation of RFC at constant 0.8 µM eRF3 with 0.01 to 0.4 µM eRF1 ('early experiments' of the termination assay; how it was determined is not told): > 90%
